Laboratory results reported in patent US20220363770A1 (Amgen, published 2022).

T1: human PAC1 receptor (human, UniProt P41586 24-468)
T1 sequence: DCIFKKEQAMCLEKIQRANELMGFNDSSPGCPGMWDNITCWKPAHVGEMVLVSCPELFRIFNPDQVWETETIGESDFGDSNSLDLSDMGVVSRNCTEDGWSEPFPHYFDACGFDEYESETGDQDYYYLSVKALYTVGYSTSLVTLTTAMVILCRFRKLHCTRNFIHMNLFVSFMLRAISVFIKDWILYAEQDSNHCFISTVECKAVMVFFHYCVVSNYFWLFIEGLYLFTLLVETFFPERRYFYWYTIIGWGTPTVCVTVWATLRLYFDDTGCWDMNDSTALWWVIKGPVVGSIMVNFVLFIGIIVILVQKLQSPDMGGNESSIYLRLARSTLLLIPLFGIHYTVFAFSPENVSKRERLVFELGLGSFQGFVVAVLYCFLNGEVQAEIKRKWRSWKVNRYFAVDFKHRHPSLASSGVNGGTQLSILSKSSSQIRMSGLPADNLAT


Experiments:
[1] = target: human CGRP receptor (human, UniProt Q16602 23-461; O60894 27-148); experiment: cell-based or functional assay
Chain of human CGRP receptor (Q16602 23-461 limits assumed, chain 1 of 2): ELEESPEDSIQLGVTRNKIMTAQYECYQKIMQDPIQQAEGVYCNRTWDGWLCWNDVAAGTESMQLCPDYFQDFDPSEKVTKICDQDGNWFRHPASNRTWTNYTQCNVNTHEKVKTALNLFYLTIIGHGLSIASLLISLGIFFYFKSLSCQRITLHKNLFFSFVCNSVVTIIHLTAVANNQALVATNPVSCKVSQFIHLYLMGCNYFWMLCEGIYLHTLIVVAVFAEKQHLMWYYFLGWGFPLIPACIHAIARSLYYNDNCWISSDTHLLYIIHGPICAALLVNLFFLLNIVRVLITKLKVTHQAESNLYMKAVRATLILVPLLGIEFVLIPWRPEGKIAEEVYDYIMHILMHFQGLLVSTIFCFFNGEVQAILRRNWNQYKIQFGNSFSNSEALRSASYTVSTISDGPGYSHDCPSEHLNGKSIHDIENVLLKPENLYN
Chain of human CGRP receptor (O60894 27-148 limits assumed, chain 2 of 2): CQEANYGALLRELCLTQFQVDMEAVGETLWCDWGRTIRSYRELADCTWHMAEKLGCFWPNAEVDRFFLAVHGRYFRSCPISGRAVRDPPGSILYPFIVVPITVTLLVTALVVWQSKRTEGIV

[2] = target: T1, human PAC1 receptor; experiment: cell-based or functional assay

Binder | Fold-improvement over 4E4 Ab [1] [fold] | IC50 [1] [nM] | Fold-improvement over 29G4v22 Ab [2] [fold] | IC50 [2] [nM]
iPS:454839 (bispecific antibody, human IgG1, kappa, lambda, N297G) light 1: QSVLTQPPSVSAAPGQKVTISCSGSRSNIGIKAVSWYQQLPGTAPKLLIYDNNKRPSGIPDRFSGSKSGTSATLGITGLQTGDEADYYCGTWDSRLSAVVFGGGTKLTVLGQPKAAPSVTLFPPSSEELQANKATLVCLISDFYPGAVTVAWKADSSPVKAGVETTTPSKQSNNKYAAKSYLSLTPEQWKSHRSYSCQVTHEGSTVEKTVAPTECS heavy 1: QVQLVESGGGVVQPGRSLRLSCAASGFTFSSFGMHWVRQAPGKGLEWVAVISFDGSIKYSVDSVKGRFTISRDNSKNTLFLQMNSLRAEDTAVYYCARDRLNYYESSGYYHYKYYGMAVWGQGTTVTVSSASTKGPSVFPLAPSSKSTSGGTAALGCLVKDYFPEPVTVSWNSGALTSGVHTFPAVLQSSGLYSLESVVTVPSSSLGTQTYICNVNHKPSNTKVDKKVEPKSCDKTHTCPPCPAPELLGGPSVFLFPPKPKDTLMISRTPEVTCVVVDVSHEDPEVKFNWYVDGVEVHNAKTKPCEEQYGSTYRCVSVLTVLHQDWLNGKEYKCKVSNKALPAPIEKTISKAKGQPREPQVYTLPPSRKKMTKNQVSLTCLVKGFYPSDIAVEWESNGQPENNYKTTPPVLKSDGSFFLYSKLTVDKSRWQQGNVFSCSVMHEALHNHYTQKSLSLSPGK light 2: EIVLTQSPATLSLSPGERATLSCRASKSVGWSLHWYQQKPGQAPRLLIKYASQSLSGIPARFSGSGSGTDFTLTISSLEPEDFAVYYCHQSSRLPFTFGPGTKVDIKRTVAAPSVFIFPPSDEQLKSGTASVVCLLNNFYPREAKVQWKVDNALQSGNSQESVTEQDSKDSTYSLESTLTLSKADYEKHKVYACEVTHQGLSSPVTKSFNRGEC heavy 2: not shown | 1.8 | 0.36 | 8.6 | 0.79
iPS:454843 (bispecific antibody, human IgG1, kappa, lambda, N297G) light 1: QSVLTQPPSVSAAPGQKVTISCSGSRSNIGIKAVSWYQQLPGTAPKLLIYDNNKRPSGIPDRFSGSKSGTSATLGITGLQTGDEADYYCGTWDSRLSAVVFGGGTKLTVLGQPKAAPSVTLFPPSSEELQANKATLVCLISDFYPGAVTVAWKADSSPVKAGVETTTPSKQSNNKYAAKSYLSLTPEQWKSHRSYSCQVTHEGSTVEKTVAPTECS heavy 1: QVQLVESGGGVVQPGRSLRLSCAASGFTFSSFGMHWVRQAPGKGLEWVAVISFDGSIKYSVDSVKGRFTISRDNSKNTLFLQMNSLRAEDTAVYYCARDRLNYYESSGYYHYKYYGMAVWGQGTTVTVSSASTKGPSVFPLAPSSKSTSGGTAALGCLVKDYFPEPVTVSWNSGALTSGVHTFPAVLQSSGLYSLESVVTVPSSSLGTQTYICNVNHKPSNTKVDKKVEPKSCDKTHTCPPCPAPELLGGPSVFLFPPKPKDTLMISRTPEVTCVVVDVSHEDPEVKFNWYVDGVEVHNAKTKPCEEQYGSTYRCVSVLTVLHQDWLNGKEYKCKVSNKALPAPIEKTISKAKGQPREPQVYTLPPSRKKMTKNQVSLTCLVKGFYPSDIAVEWESNGQPENNYKTTPPVLKSDGSFFLYSKLTVDKSRWQQGNVFSCSVMHEALHNHYTQKSLSLSPGK light 2: EIVLTQSPATLSLSPGERATLSCRASKSVGWSLHWYQQKPGQAPRLLIKYASQSLSGIPARFSGSGSGTDFTLTISSLEPEDFAVYYCHQSSRLPFTFGPGTKVDIKRTVAAPSVFIFPPSDEQLKSGTASVVCLLNNFYPREAKVQWKVDNALQSGNSQESVTEQDSKDSTYSLESTLTLSKADYEKHKVYACEVTHQGLSSPVTKSFNRGEC heavy 2: not shown | 1.6 | 0.42 | 5.8 | 0.93
iPS:454841 (bispecific antibody, human IgG1, kappa, lambda, N297G) light 1: QSVLTQPPSVSAAPGQKVTISCSGSRSNIGIKAVSWYQQLPGTAPKLLIYDNNKRPSGIPDRFSGSKSGTSATLGITGLQTGDEADYYCGTWDSRLSAVVFGGGTKLTVLGQPKAAPSVTLFPPSSEELQANKATLVCLISDFYPGAVTVAWKADSSPVKAGVETTTPSKQSNNKYAAKSYLSLTPEQWKSHRSYSCQVTHEGSTVEKTVAPTECS heavy 1: QVQLVESGGGVVQPGRSLRLSCAASGFTFSSFGMHWVRQAPGKGLEWVAVISFDGSIKYSVDSVKGRFTISRDNSKNTLFLQMNSLRAEDTAVYYCARDRLNYYESSGYYHYKYYGMAVWGQGTTVTVSSASTKGPSVFPLAPSSKSTSGGTAALGCLVKDYFPEPVTVSWNSGALTSGVHTFPAVLQSSGLYSLESVVTVPSSSLGTQTYICNVNHKPSNTKVDKKVEPKSCDKTHTCPPCPAPELLGGPSVFLFPPKPKDTLMISRTPEVTCVVVDVSHEDPEVKFNWYVDGVEVHNAKTKPCEEQYGSTYRCVSVLTVLHQDWLNGKEYKCKVSNKALPAPIEKTISKAKGQPREPQVYTLPPSRKKMTKNQVSLTCLVKGFYPSDIAVEWESNGQPENNYKTTPPVLKSDGSFFLYSKLTVDKSRWQQGNVFSCSVMHEALHNHYTQKSLSLSPGK light 2: EIVLTQSPATLSLSPGERATLSCRASKSVGWSLHWYQQKPGQAPRLLIKYASQSLSGIPARFSGSGSGTDFTLTISSLEPEDFAVYYCHQSSRLPFTFGPGTKVDIKRTVAAPSVFIFPPSDEQLKSGTASVVCLLNNFYPREAKVQWKVDNALQSGNSQESVTEQDSKDSTYSLESTLTLSKADYEKHKVYACEVTHQGLSSPVTKSFNRGEC heavy 2: not shown | 1.4 | 0.46 | 8.8 | 0.78

Further lines, results first:

Fold-improvement over 4E4 Ab [1] [fold] | IC50 [1] [nM] | Fold-improvement over 29G4v22 Ab [2] [fold] | IC50 [2] [nM] | Binder
1.7 | 0.4 | 8.2 | 0.66 | iPS:454845 (bispecific antibody, human IgG1, kappa, lambda, N297G) light 1: QSVLTQPPSVSAAPGQKVTISCSGSRSNIGIKAVSWYQQLPGTAPKLLIYDNNKRPSGIPDRFSGSKSGTSATLGITGLQTGDEADYYCGTWDSRLSAVVFGGGTKLTVLGQPKAAPSVTLFPPSSEELQANKATLVCLISDFYPGAVTVAWKADSSPVKAGVETTTPSKQSNNKYAAKSYLSLTPEQWKSHRSYSCQVTHEGSTVEKTVAPTECS heavy 1: QVQLVESGGGVVQPGRSLRLSCAASGFTFSSFGMHWVRQAPGKGLEWVAVISFDGSIKYSVDSVKGRFTISRDNSKNTLFLQMNSLRAEDTAVYYCARDRLNYYESSGYYHYKYYGMAVWGQGTTVTVSSASTKGPSVFPLAPSSKSTSGGTAALGCLVKDYFPEPVTVSWNSGALTSGVHTFPAVLQSSGLYSLESVVTVPSSSLGTQTYICNVNHKPSNTKVDKKVEPKSCDKTHTCPPCPAPELLGGPSVFLFPPKPKDTLMISRTPEVTCVVVDVSHEDPEVKFNWYVDGVEVHNAKTKPCEEQYGSTYRCVSVLTVLHQDWLNGKEYKCKVSNKALPAPIEKTISKAKGQPREPQVYTLPPSRKKMTKNQVSLTCLVKGFYPSDIAVEWESNGQPENNYKTTPPVLKSDGSFFLYSKLTVDKSRWQQGNVFSCSVMHEALHNHYTQKSLSLSPGK light 2: EIVLTQSPATLSLSPGERATLSCRASKSVGWSLHWYQQKPGQAPRLLIKYASQSLSGIPARFSGSGSGTDFTLTISSLEPEDFAVYYCHQSSRLPFTFGPGTKVDIKRTVAAPSVFIFPPSDEQLKSGTASVVCLLNNFYPREAKVQWKVDNALQSGNSQESVTEQDSKDSTYSLESTLTLSKADYEKHKVYACEVTHQGLSSPVTKSFNRGEC heavy 2: not shown
1.2 | 0.55 | 3.6 | 1.48 | iPS:454849 (bispecific antibody, human IgG1, kappa, lambda, N297G) light 1: QSVLTQPPSVSAAPGQKVTISCSGSRSNIGIKAVSWYQQLPGTAPKLLIYDNNKRPSGIPDRFSGSKSGTSATLGITGLQTGDEADYYCGTWDSRLSAVVFGGGTKLTVLGQPKAAPSVTLFPPSSEELQANKATLVCLISDFYPGAVTVAWKADSSPVKAGVETTTPSKQSNNKYAAKSYLSLTPEQWKSHRSYSCQVTHEGSTVEKTVAPTECS heavy 1: QVQLVESGGGVVQPGRSLRLSCAASGFTFSSFGMHWVRQAPGKGLEWVAVISFDGSIKYSVDSVKGRFTISRDNSKNTLFLQMNSLRAEDTAVYYCARDRLNYYESSGYYHYKYYGMAVWGQGTTVTVSSASTKGPSVFPLAPSSKSTSGGTAALGCLVKDYFPEPVTVSWNSGALTSGVHTFPAVLQSSGLYSLESVVTVPSSSLGTQTYICNVNHKPSNTKVDKKVEPKSCDKTHTCPPCPAPELLGGPSVFLFPPKPKDTLMISRTPEVTCVVVDVSHEDPEVKFNWYVDGVEVHNAKTKPCEEQYGSTYRCVSVLTVLHQDWLNGKEYKCKVSNKALPAPIEKTISKAKGQPREPQVYTLPPSRKKMTKNQVSLTCLVKGFYPSDIAVEWESNGQPENNYKTTPPVLKSDGSFFLYSKLTVDKSRWQQGNVFSCSVMHEALHNHYTQKSLSLSPGK light 2: EIVLTQSPATLSLSPGERATLSCRASKSVGWSLHWYQQKPGQAPRLLIKYASQSLSGIPARFSGSGSGTDFTLTISSLEPEDFAVYYCHQSSRLPFTFGPGTKVDIKRTVAAPSVFIFPPSDEQLKSGTASVVCLLNNFYPREAKVQWKVDNALQSGNSQESVTEQDSKDSTYSLESTLTLSKADYEKHKVYACEVTHQGLSSPVTKSFNRGEC heavy 2: not shown
1.5 | 0.43 | 6.7 | 0.8 | iPS:454847 (bispecific antibody, human IgG1, kappa, lambda, N297G) light 1: QSVLTQPPSVSAAPGQKVTISCSGSRSNIGIKAVSWYQQLPGTAPKLLIYDNNKRPSGIPDRFSGSKSGTSATLGITGLQTGDEADYYCGTWDSRLSAVVFGGGTKLTVLGQPKAAPSVTLFPPSSEELQANKATLVCLISDFYPGAVTVAWKADSSPVKAGVETTTPSKQSNNKYAAKSYLSLTPEQWKSHRSYSCQVTHEGSTVEKTVAPTECS heavy 1: QVQLVESGGGVVQPGRSLRLSCAASGFTFSSFGMHWVRQAPGKGLEWVAVISFDGSIKYSVDSVKGRFTISRDNSKNTLFLQMNSLRAEDTAVYYCARDRLNYYESSGYYHYKYYGMAVWGQGTTVTVSSASTKGPSVFPLAPSSKSTSGGTAALGCLVKDYFPEPVTVSWNSGALTSGVHTFPAVLQSSGLYSLESVVTVPSSSLGTQTYICNVNHKPSNTKVDKKVEPKSCDKTHTCPPCPAPELLGGPSVFLFPPKPKDTLMISRTPEVTCVVVDVSHEDPEVKFNWYVDGVEVHNAKTKPCEEQYGSTYRCVSVLTVLHQDWLNGKEYKCKVSNKALPAPIEKTISKAKGQPREPQVYTLPPSRKKMTKNQVSLTCLVKGFYPSDIAVEWESNGQPENNYKTTPPVLKSDGSFFLYSKLTVDKSRWQQGNVFSCSVMHEALHNHYTQKSLSLSPGK light 2: EIVLTQSPATLSLSPGERATLSCRASKSVGWSLHWYQQKPGQAPRLLIKYASQSLSGIPARFSGSGSGTDFTLTISSLEPEDFAVYYCHQSSRLPFTFGPGTKVDIKRTVAAPSVFIFPPSDEQLKSGTASVVCLLNNFYPREAKVQWKVDNALQSGNSQESVTEQDSKDSTYSLESTLTLSKADYEKHKVYACEVTHQGLSSPVTKSFNRGEC heavy 2: not shown
